Biological target: T1, mouse ADAMTS7 (Mus musculus, UniProt Q68SA9)
T1 construct: Full-length mouse Adamts7 1-1857 (Uniprot Q68SA9, WT or E373Q catalytic mutant); expressed in transfected cells; host or cells: Human Coronary Artery Smooth Muscle Cells (HCA-SMC, Lonza), adenovirus 50 MOI
T1 sequence (Q68SA9 221-1657): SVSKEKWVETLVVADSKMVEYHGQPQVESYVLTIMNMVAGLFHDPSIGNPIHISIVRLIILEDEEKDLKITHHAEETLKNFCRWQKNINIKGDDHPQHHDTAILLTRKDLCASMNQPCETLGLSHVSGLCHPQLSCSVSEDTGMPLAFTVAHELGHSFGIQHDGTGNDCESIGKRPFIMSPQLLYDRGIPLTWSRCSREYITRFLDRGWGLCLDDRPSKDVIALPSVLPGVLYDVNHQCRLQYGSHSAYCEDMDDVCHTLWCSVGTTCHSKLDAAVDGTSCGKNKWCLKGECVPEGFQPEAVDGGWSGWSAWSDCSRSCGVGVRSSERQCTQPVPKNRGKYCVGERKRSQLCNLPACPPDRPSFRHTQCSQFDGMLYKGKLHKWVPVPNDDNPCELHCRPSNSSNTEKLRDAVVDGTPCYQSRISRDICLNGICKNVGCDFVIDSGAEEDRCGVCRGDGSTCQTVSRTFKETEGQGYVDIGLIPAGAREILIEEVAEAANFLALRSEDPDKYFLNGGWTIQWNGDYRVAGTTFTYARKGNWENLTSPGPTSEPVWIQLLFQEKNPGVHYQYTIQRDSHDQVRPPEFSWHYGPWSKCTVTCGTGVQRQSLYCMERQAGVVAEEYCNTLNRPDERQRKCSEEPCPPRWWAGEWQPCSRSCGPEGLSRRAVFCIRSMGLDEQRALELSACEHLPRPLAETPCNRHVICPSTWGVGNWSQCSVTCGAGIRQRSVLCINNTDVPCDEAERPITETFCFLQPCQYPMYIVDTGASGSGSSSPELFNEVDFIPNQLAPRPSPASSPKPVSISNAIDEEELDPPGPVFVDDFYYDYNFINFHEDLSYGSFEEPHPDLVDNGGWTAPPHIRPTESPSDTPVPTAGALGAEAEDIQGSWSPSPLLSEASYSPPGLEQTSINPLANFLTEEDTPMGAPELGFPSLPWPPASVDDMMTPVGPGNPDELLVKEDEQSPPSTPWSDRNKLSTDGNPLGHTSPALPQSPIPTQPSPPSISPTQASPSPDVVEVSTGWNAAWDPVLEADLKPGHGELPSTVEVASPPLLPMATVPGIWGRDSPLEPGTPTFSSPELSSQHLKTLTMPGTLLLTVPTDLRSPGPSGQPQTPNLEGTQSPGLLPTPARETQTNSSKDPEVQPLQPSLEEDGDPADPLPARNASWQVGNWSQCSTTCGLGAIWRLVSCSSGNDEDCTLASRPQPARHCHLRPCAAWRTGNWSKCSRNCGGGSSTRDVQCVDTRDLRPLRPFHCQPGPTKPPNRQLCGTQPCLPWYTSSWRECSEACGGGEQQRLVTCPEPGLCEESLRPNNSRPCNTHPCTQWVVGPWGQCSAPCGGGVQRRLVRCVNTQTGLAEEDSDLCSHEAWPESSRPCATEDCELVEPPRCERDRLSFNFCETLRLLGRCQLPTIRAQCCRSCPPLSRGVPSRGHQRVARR
Assay: TMT10 TAILS N-terminomics, SMC1 experiment (Ad-mADAMTS7 WT vs EQ vs Luc, technical replicates, trypsin digest)
Type: cell-based
Conditions: TAILS neo-N-terminal peptide abundance; log fold change, Ad-mADAMTS7 WT over Luc
Outline: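 Full-length mouse ADAMTS7 (WT or E373Q mutant, C-terminal 3xFLAG) or luciferase was transduced via adenovirus, 50 MOI, into HCA-SMC (SMC1, SMC2) or HUVEC. SMC1: pooled media, technical triplicates 400 ug; SMC2: process triplicates 300 ug; HUVEC: process triplicates 200 ug, bFGF2 10 ng/ml.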

## LTBP1_546 (HVYPVAAKTQLGR; listed as Homo sapiens)
  logFC.mWT.over.Lux: 3.62

## LTBP2_485 (SVQIHQVAQVR; listed as Homo sapiens)
  logFC.mWT.over.Lux: 1.80

## LTBP2_533 (SGEPPRPLPPAAPR; listed as Homo sapiens)
  logFC.mWT.over.Lux: 1.34

## LTBP2_677 (SLGPGTCTLPLAQR; listed as Homo sapiens)
  logFC.mWT.over.Lux: 0.90

## LTBP2_760 (SSGALPGPAER; listed as Homo sapiens)
  logFC.mWT.over.Lux: 1.54

## LTBP2_1023 (GKCTNLEGSFR; listed as Homo sapiens)
  logFC.mWT.over.Lux: 0.74

## LTBP2_1371 (SGQKGHAPCSSVLGR; listed as Homo sapiens)
  logFC.mWT.over.Lux: 1.24

## LTBP2_1560 (TTYTECCCQDGEAWSQQCALCPPR; listed as Homo sapiens)
  logFC.mWT.over.Lux: 0.94

## LTBP2_1584 (SSEVYAQLCNVAR; listed as Homo sapiens)
  logFC.mWT.over.Lux: 1.40
